Measurements reported in patent US20240141060A1 (Novartis, published 2024).
Where a chain is given by its changes, count along the chain named. Numbers in names are those of the source.

Columns and labels:
[1] = biological target: T1, Cynomolgus CD73/NT5E Protein (His Tag) (Sino Biological Cat: 90192-C08H-50) (cynomolgus monkey, UniProt A0A2K5V5U7 27-547); experiment: Biacore SPR, His-tagged CD73 captured by anti-His antibody on CM5 chip, IgG as analyte, 1:1 model
T1 construct: treated as one protein; also called Cynomolgus CD73-His; recombinant cynomolgus monkey CD73; not shown: His tag
T1 sequence: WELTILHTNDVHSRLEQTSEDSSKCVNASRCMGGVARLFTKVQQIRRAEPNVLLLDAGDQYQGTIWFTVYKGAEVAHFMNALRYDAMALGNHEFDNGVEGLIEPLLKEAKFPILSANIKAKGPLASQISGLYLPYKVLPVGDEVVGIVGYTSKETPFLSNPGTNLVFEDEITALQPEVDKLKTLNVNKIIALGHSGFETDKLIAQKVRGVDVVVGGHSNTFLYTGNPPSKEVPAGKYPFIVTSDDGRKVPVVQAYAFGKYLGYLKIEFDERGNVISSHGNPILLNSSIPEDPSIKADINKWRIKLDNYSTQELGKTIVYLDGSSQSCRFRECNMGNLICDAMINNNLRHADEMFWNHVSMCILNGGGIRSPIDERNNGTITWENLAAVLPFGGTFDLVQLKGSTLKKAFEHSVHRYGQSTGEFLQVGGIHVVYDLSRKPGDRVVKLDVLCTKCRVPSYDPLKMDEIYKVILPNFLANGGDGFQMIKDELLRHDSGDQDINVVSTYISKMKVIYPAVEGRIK
Method: (§1) The anti-His Ab was directly immobilized onto a CM5 chip surface by amine coupling. The His-tagged human CD73/His, cynomolgus monkey CD73/His, mouse CD73/His or rat CD73/His was flowed over and captured at a desired resonance unit (RU) for an Rmax of 20. Antibody analyte concentrations in serial dilutions of IgG or Fab were flowed over at 60 μL/min. The sensorgrams were analyzed using the manufacturer's software for a 1:1 binding model.
(§2) Therefore, given that 1:1 bidentate binding will favor avidity, the whole Ab affinities were used rather than Fab measurements.

[2] = biological target: T2, Recombinant Human 5′-Nucleotidase/CD73 Protein, CF (R&D Systems Cat: 5795-EN) (human, UniProt P21589 27-547); experiment: as above
T2 construct: Bought protein; also called Human CD73-His; recombinant human CD73; not shown: His tag
T2 sequence (looked up): T1 sequence with T199M, A350T, I466V
Method: as §1, §2

[3] = biological target: T3, recombinant rat CD73 (Sino Biological 80375-R08H) (rat, UniProt P21588 29-551); experiment: Biacore SPR, His-tagged CD73 captured by anti-His antibody on CM5 chip, antibody as analyte
T3 construct: Bought protein; also called rCD73; rat CD73/His
T3 sequence (looked up): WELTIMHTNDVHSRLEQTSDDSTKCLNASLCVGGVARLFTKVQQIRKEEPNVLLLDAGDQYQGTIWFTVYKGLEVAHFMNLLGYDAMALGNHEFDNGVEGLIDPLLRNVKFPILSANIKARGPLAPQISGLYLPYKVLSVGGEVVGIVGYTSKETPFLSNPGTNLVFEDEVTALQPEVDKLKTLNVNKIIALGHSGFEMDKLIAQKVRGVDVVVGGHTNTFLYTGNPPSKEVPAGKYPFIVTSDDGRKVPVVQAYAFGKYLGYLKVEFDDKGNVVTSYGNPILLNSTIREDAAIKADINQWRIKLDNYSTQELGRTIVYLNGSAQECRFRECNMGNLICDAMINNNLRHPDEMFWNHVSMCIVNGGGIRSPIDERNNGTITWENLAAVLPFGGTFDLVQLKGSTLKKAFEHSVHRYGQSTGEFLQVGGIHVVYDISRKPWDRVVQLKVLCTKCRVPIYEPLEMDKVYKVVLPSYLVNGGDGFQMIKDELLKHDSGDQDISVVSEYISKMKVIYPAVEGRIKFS
Method: as §1

[4] = biological target: T4, Recombinant Mouse 5′-Nucleotidase/CD73 Protein, CF (R&D Systems Cat: 4488-EN) (mouse, UniProt Q61503 29-549, limits assumed); experiment: as above
T4 construct: Bought protein; also called Mouse CD73-His; recombinant mouse CD73; not shown: His tag
T4 sequence (looked up): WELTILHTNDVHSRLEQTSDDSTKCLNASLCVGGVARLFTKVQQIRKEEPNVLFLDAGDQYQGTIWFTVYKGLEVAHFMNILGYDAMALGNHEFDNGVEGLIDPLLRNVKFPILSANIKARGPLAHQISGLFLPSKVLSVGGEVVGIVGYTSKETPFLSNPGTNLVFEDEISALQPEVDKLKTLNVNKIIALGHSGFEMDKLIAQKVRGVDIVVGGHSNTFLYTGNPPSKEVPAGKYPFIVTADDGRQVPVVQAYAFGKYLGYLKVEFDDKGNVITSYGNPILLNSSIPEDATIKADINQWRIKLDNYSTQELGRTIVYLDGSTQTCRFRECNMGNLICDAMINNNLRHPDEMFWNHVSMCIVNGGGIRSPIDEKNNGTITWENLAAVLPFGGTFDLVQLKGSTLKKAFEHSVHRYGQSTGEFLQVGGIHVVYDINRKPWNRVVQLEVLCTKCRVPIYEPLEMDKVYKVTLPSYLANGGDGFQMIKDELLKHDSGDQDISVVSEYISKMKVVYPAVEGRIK
Method: as §1

B1: anti-CD73 antibody 373.A (antibody, human IgG4 S228P, kappa, V domains shown)
VH: EVQLLESGGGLVQPGGSLRLSCAASGFTFHRYAMSWVRQAPGKGLEWVSAISGSGMNTYYADSVKGRFTISRDNSKNTLYLQMNSLRAEDTAVYYCARGGLYGSGSYLSDFDLWGRGTLVTVSS
VL: EIVLTQSPATLSVSPGERATLSCRASQSVGSNLAWYQQKPGQAPRLLIYGASTRATGIPARFSGSGSGTEFTLTISSLQSEDFAVYYCQQHNAFPYTFGGGTKVEIKR
notes: IgG4 S228P format
B1 was tested, and the Kd [1] was 0.068 nM, the Kd [2] was 0.991 nM and the binding result [3] was “no binding”. B1: no binding [4].
